B1: hCdc5 carboxyl terminal domain (amino acids 491-802), His6 fusion (other)
chain: EIVLPENAEKELEEREIDDTYIEDAADVDARKQAIRDAERVKEMKRMHKAVQKDLPRPSEVNTEILRPLNVEPPLTDLQKSEELIKKEMITMLHYDLLHHPYEPSGNKKGKTVGFGTNNSEHITYLEHNPYEKFSKEELKKAQDVLVQEMEVVKQGMSHGELSSEAYNQVWEECYSQVLYLPGQSRYTRANLASKKDRIESLEKRLEINRGHMTTEAKRAAKMEKKMKILLGGYQSRAMGLMKQLNDLWDQIEQAHLELRTFEELKKHEDSAIPRRLECLKEDVQRQQEREKELQHRYADLLLEKETLKSKF
notes: Expressed and purified in E. coli as a His6 fusion; not shown: His6 tag
B2: hCdc5 putative nuclear localization domain (amino acids 205-358), His6 fusion (other)
chain: KRGVDYNAEIPFEKKPALGFYDTSEENYQALDADFRKLRQQDLDGELRSEKEGRDRKKDKQHLKRKKESDLPSAILQTSGVSEFTKKRSKLVLPAPQISDAELQEVVKVGQASEIARQTAEESGITNSASSTLLSEYNVTNNSVALRTPRTPAS
notes: as for B1
B3: hCdc5 central domain (amino acids 365-501), His6 fusion (other)
chain: EAQNLMALTNVDTPLKGGLNTPLHESDFSGVTPQRQVVQTPNTVLSTPFRTPSNGAEGLTPRSGTTPKPVINSTPGRTPLRDKLNINPEDGMADYSDPSYVKQMERESREHLRLGLLGLPAPKNDFEIVLPENAEKE
notes: as for B1
B4: hCdc5 DNA binding domain (amino acids 1-120), His6 fusion (other)
chain: MPRIMIKGGVWRNTEDEILKAAVMKYGKNQWSRIASLLHRKSAKQCKARWYEWLDPSIKKTEWSREEEEKLLHLAKLMPTQWRTIAPIIGRTAAQCLEHYEFLLDKAAQRDNEEETTDDP
notes: Expressed and purified in E. coli as a His6 fusion; also called helix-turn-helix domain; not shown: His6 tag

Experiments:
[1] = target: B3; test: glutaraldehyde cross-linking of purified His6 fusions
[2] = target: B4; test: as above
[3] = target: B2; test: as above
[4] = target: the molecule itself; test: glutaraldehyde cross-linking of purified His6 fusion
[5] = target: the molecule itself; test: glutaraldehyde cross-linking of purified His6 fusion, SDS-PAGE and anti-His immunoblot

binding result [1]	binding result [2]	binding result [3]	Binder	binding result [4]	binding result [5]
no binding	no binding	no binding	B1	no binding	–
–	–	–	B2	–	binds
–	–	no binding	B3	no binding	–
no binding	–	no binding	B4	–	binds

Reference: patent US20020127702A1 (University of California, published 2002)
